# Assay results as given in article PMC5778462.
# Where two headings read alike, the source gives them in different places.
# T1: MAZ (UniProt P56270)
# T1 sequence: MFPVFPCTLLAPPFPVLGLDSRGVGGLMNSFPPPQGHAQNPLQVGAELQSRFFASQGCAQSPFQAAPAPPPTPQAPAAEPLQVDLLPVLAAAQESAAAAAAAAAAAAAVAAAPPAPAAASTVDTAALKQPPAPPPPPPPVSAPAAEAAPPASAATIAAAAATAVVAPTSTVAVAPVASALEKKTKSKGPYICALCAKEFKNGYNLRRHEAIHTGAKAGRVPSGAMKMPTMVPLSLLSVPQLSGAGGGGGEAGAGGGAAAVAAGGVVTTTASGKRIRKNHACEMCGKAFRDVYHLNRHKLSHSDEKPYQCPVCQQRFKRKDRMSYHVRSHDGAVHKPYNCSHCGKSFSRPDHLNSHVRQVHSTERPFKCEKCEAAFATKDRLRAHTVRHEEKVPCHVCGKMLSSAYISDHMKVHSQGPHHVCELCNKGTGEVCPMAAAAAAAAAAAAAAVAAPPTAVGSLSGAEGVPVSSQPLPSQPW
# Assays:
# Assay in all cases: EMSA
# [1] = molecular target: T1, MAZ
# [2] = molecular target: T2, OGG1 (hOGG1) (UniProt O15527 1-345)
# T2 sequence (O15527 whole entry): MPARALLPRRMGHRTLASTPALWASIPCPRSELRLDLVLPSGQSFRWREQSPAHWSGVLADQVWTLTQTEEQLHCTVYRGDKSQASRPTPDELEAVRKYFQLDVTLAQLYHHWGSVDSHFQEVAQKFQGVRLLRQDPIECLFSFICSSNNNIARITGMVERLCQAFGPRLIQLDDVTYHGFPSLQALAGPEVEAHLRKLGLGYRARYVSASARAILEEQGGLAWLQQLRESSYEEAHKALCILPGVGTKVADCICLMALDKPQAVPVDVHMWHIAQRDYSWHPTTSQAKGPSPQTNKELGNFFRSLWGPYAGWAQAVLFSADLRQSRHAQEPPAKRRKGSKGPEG
# [3] = molecular target: T2, OGG1 (hOGG1); remark: listed apart in the source
molecule,measurement,setting,value
AGGGCGGTGTGGGAAGAGGGAAGAGGGGGAGG [97 G4],binding signal (fold vs 32R G4),[1]; 8-oxoG at G16 and G23,5
AGGGCGGTGTGGGAAGAGGGAAGAGGGGGAGG [32R G4],binding signal,[1],1 reference
AGGGCGGTGTGGGAAGAGGGAAGAGGGGGAGG [96 G4],binding signal (fold vs 32R G4),[1]; 8-oxoG in 11-nt loop (Table 1: one; text: two; positions only in figure),5
AGGGCGGTGTGGGAAGAGGGAAGAGGGGGAGG [95 G4],binding signal (fold vs 32R G4),[1]; 8-oxoG at G16,5
AGGGCGGTGTGGGAAGAGGGAAGAGGGGGAGG (structured_DNA) [32R G4],binding result,[2],binds
"AGGGCGGTGTGGGAAGAGGGAAGAGGGGGAGG (structured_DNA, two 8-oxoG in G-tetrad runs (exact positions only in figure)) [94 G4]",binding result,[3],binds
"AGGGCGGTGTGGGAAGAGGGAAGAGGGGGAGG (structured_DNA, 8-oxoG at G6) [92 G4]",binding result,[3],binds
"AGGGCGGTGTGGGAAGAGGGAAGAGGGGGAGG (structured_DNA, one 8-oxoG in G-run III (exact position only in figure)) [93 G4]",binding result,[3],binds
